Experimental data taken from patent US20100173362A1 (published 2010).

B1: Chimeric 2B8 / Hu2B8_Hv1-f.1 (antibody, V domains shown)
VH: EVQLVQSGAEVKKPGATVKISCKVSGYTFTTYWMHWVQQAPGKGLEWMGEINPTNGHTNYNEKFQGRVTITADTSTDTAYMELSSLRSEDTAVYYCATNYVGSIFDYWGQGTLVTVSS
VL: NIVMTQSPKSMSMSVGERVTLSCKASENVVSYVSWYQQKPAQSPKLLIYGASNRNTGVPDRFTGSGSATDFTLTISSVRAEDLADYHCGQSYNYPYTFGGGTRLEIKR
B2: Chimeric 2B8 / Hu2B8_Hv5-a.1 (antibody, V domains shown)
VH: EVQLVQSGAEVKKPGESLRISCKGSGYSFTTYWMHWVRQMPGKGLEWMGEINPTNGHTNYNPSFQGHVTISADKSISTAYLQWSSLKASDTAMYYCARNYVGSIFDYWGQGTLVTVSS
VL: B1 VL
B3: Hu2B8_Kv3-15.1 / Hu2B8_Hv1-f.1 (antibody, V domains shown)
VH: B1 VH
VL: EIVMTQSPATLSVSPGERATLSCKASENVVSYVSWYQQKPGQAPRLLIYGASNRNTGIPARFSGSGSGTEFTLTISSLQSEDFAVYYCGQSYNYPYTFGQGTKLEIKR
B4: chimeric 2B8 (antibody, V domains shown)
VH: QVQLQQPGAELVKPGTSVKLSCKASGYTFTTYWMHWVNQRPGQGLEWIGEINPTNGHTNYNEKFKSKATLTVDKSSSTAYMQLSSLTSEDSAVYYCARNYVGSIFDYWGQGTTLTVSS
VL: B1 VL
B5: Hu2B8_Kv1-39.1 / Hu2B8_Hv1-f.1 (antibody, V domains shown)
VH: B1 VH
VL: DIQMTQSPSSLSASVGDRVTITCKASENVVSYVSWYQQKPGKAPKLLIYGASNRNTGVPSRFSGSGSGTDFTLTISSLQPEDFATYYCGQSYNYPYTFGQGTKLEIKR
B6: Hu2B8_Kv3-15.1 / Hu2B8_Hv5-a.1 (antibody, V domains shown)
VH: B2 VH
VL: B3 VL
B7: Hu2B8_Kv1-39.1 / Chimeric 2B8 (antibody, V domains shown)
VH: B4 VH
VL: B5 VL
B8: Hu2B8_Kv1-39.1 / Hu2B8_Hv5-a.1 (antibody, V domains shown)
VH: B2 VH
VL: B5 VL
B9: Hu2B8_Kv3-15.1 / Chimeric 2B8 (antibody, V domains shown)
VH: B4 VH
VL: B3 VL

Target: recombinant human HGF (R&D Systems, Catalog No. 294-HGN-025) (human, UniProt P14210 32-728)
Sequence (P14210 32-728): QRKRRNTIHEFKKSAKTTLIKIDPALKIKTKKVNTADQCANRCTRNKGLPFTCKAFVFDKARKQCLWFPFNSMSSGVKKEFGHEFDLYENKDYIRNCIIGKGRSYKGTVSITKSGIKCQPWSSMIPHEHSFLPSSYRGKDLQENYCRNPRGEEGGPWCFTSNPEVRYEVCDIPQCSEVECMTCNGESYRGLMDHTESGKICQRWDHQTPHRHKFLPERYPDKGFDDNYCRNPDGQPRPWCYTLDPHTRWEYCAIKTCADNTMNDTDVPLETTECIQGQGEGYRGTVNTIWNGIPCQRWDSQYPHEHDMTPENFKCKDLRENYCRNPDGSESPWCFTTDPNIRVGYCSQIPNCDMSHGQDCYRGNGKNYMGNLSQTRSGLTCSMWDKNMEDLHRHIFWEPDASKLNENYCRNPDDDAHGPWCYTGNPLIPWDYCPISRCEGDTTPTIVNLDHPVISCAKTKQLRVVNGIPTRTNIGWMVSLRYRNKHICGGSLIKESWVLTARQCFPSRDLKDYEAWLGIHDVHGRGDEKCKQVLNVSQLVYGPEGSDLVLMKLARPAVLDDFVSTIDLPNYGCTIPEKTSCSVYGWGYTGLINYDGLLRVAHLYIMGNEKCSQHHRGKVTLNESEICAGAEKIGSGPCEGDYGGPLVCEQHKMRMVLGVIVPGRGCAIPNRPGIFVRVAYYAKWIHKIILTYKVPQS
Experiment: SPR

Binder | Kd [nM]
B1 | 0.662
B2 | 0.0044
B3 | 0.466
B4 | 0.0116
B5 | 0.294
B6 | 0.0269
B7 | 0.0136
B8 | 0.0147
B9 | 0.0055
